The test concerns the target T1, raccoon dog transferrin receptor ectodomain (recombinant RDTfR, from residue 121, C-terminal 6x His) (raccoon dog).
T1 construct: transferrin receptor type 1 of the raccoon dog, ectodomain starting at amino acid residue 121 of XM_055316305; Cloned with the N-terminal signal peptide GP67; also called recombinant RDTfR protein; purified RDTfR; source: Sf9 cells (pFastBacI-RDTfR), purified (Ni-NTA, dialysed in PBS); not shown: His6, C-terminal, kept
In words: BLI; virus immobilised on APS probe (Gator Prime), PBS as running buffer; three concentrations (serial dilutions) of RDTfR in PBST (PBS, 0.05% Tween-20) applied; global fit, 1:1 binding model. Conditions: both partners purified.

B1: rRDPV-10 virus (rescued from the infectious cDNA clone pRDPV-10 of raccoon dog parvovirus strain RDPV/FLD/2010), capsid of VP2 (complex)
chain: MSDGAVQPDGGQPAVRNERATGSGNGSGGGGGGGSGGVGISTGTFNNQTEFKFLENGWVEITANSSRLVHLNMPESENYRRVVVNNMDKTAVNGNMALDDIHAQIVTPWSLVDANAWGVWFNPGDWQLIVNTMSELHLVSFEQEIFNVVLKTVSESATQPPTKVYNNDLTASLMVALDSNNTMPFTPAAMRSETLGFYPWKPTIPTPWRYYFQWDRTLIPSHTGTSGTPTNIYHGTDPDDVQFYTIENSVPVHLLRTGDEFATGTFFFDCKPCRLTHTWQTNRALGLPPFLNSLPQSEGATNFGDIGVQQDKRRGVTQMGNTNYITEATIMRPAEVGYSAPYYSFEASTQGPFKTPIAAGRGGAQTDENQAADGNPRYAFGRQHGQKTTTTGETPERFTYIAHQDTGRYPEGDWIQNINFNLPVTNDNVLLPTDPIGGKTGINYTNIFNTYGPLTALNNVPPVYPNGQIWDKEFDTDLKPRLHVNAPFVCQNNCPGQLFVKVAPNLTNEYDPDASANMSRIVTYSDFWWKGKLVFKAKLRASHTWNPIQQMSINVDNQFNYVPSNIGGMKIVYEKSQLAPRKLY
With B1, the Kd was 137 nM, the koff is 0.0071 s⁻¹ and the kon worked out at 51800 M⁻¹ s⁻¹.

(Values after PMC12548415 (Journal of Virology, 2025).)
